# From article doi:10.1101/784462, “Rv3722c governs aspartate-dependent nitrogen metabolism in Mycobacterium tuberculosis” (bioRxiv, 2019)
# B1: Rv3722c (aspartate aminotransferase of Mycobacterium tuberculosis) (enzyme)
# chain: SFDSLSPQELAALHARHQQDYAALQGMKLALDLTRGKPSAEQLDLSNQLLSLPGDDYRDPEGTDTRNYGGQHGLPGLRAIFAELLGIAVPNLIAGNNSSLELMHDIVAFSMLYGGVDSPRPWIQEQDGIKFLCPVPGYDRHFAITETMGIEMIPIPMLQDGPDVDLIEELVAVDPAIKGMWTVPVFGNPSGVTYSWETVRRLVQMRTAAPDFRLFWDNAYAVHTLTLDFPRQVDVLGLAAKAGNPNRPYVFASTSKITFAGGGVSFFGGSLGNIAWYLQYAGKKSIGPDKVNQLRHLRFFGDADGVRLHMLRHQQILAPKFALVAEVLDQRLSESKIASWTEPKGGYFISLDVLPGTARRTVALAKDVGIAVTEAGASFPYRKDPDDKNIRIAPSFPSVPDLRNAVDGLATCALLAATETLLNQGLASSAPNVR
# notes: also called AspAT; not shown: His6, C-terminal, cleaved
# Target: the molecule itself
# Assay: crystal structure; Rv3722c (~40 mg/mL) co-crystallised with 5 mM L-glutamic acid (PDB 6U78) or 10 mM L-kynurenine (PDB 6U7A), sitting drop vapor diffusion at 17 °C
protein,measurement,value
B1,binding result,binds
